Laboratory results as given in the DeepSol protein solubility set.

Assay: soluble on expression in E. coli; label from the status in PepcDB or PDB records

Sequence | soluble on expression in E. coli
MQNVLIVGVGFMGGSFAKSLRRSGFKGKIYGYDINPESISKAVDLGIIDEGTTSIAKVEDFSPDFVMLSSPVRTFREIAKKLSYILSEDATVTDQGSVKGKLVYDLENILGKRFVGGHPIAGTEKSGVEYSLDNLYEGKKVILTPTKKTDKKRLKLVKRVWEDVGGVVEYMSPELHDYVFGVVSHLPHAVAFALVDTLIHMSTPEVDLFKYPGGGFKDFTRIAKSDPIMWRDIFLENKENVMKAIEGFEKSLNHLKELIVREAEEELVEYLKEVKIKRMEI | soluble
MKTTKFNIENLDLFYGENQALKSINLPIPTRQVTALIGPSGCGKSTLLRCLNRMNDLIEGVTITGKLTMDGQDVYGNIDVSDLRIRVGMVFQKPNPFPMSIYENVAYGLRAQGIKDKKHLDEVVERSLRGAALWDEVKDRLKSHAFGLSGGQQQRLCIARTIAMEPDVILMDEPTSALDPIATHKIEELMEDLKKNYTIVIVTHSMQQARRISDRTAFFLMGELVEHDDTQVIFSNPRDDRTRGYVNGDFG | not soluble
GPGSMADEEDYDFEVNKKETDKIERPERLIEVLQHDTNQTLTEEMVEHAQAVLDFMPVEYTYKDVAAKLKCRLDGAYGGTWHVIVGKHFGANVTNDDDTLINMKINGVYFLAMRSGPPERPQESAENEAVTAE | soluble
VLGDKEWVYLPGLKESFKARIDTGATTSSISAVDIVPFERGGQDWVKFRIEHDNIRSEELSLPVERWVRIRQSSAEEAQRRAVVVAWIQIGDLKEQTEFTLTDRTHLTYPLLLGRSFFKDVAVVDVSRHYIQPKHPSPKK | not soluble
MAAIIRTLFKSKKSKKGDEENNEDLAREVSNRRSFRAPSTSSSKSQRRAVARFADDGALPATAAYHTTSAPKLRKGPQSCPGGYRDESDVSYESDKYSQKSNSHRRRDVLHQSMRQNYTIDEGRKPSSRRHHSSKSDFRRRGESSEYGSGDPSPVGQYSSRHSHYEDRIEESENDDFSEKAQFAVIERAQQHYMQKYKESEQKRREEKRKLKDMEKECNDAKNAMFHYMNQLDKVKKERDCYRKELSRCKKQLEAFQNSGYDAFHHLRQPQISNPQQYPPPLSMGSYPYMSQSMNASHHMSSNFMNSAPPSSNTPMTMTSGAGESLINPSDVSFLQNSFLQPTSQGLTGMTPPPGGFKVPTNYGDDDRDEVKDYRSELLIETSRSTKEVDSISPSSSADSQVTLLDHSTIDKENRKPPSRPFSMMSI | not soluble
ALMITDECINCDVCEPECPNGAISQGDETYVIEPSLCTECVGHYETSQCVEVCPVDAIIKDPSHEETEDELRAKYERITGEG | soluble
AHHHHHHGSAELKVSAIKEGTVIDHIPAGKGLKVIQILGLGELKNGGAVLLAMNVPSKKLGRKDIVKVEGKFLSEEEVNKIALVAPTATVNIIREYKVVEKFKVEIPDVIEGILKCGNPNCITHYEYVTPKFYVISKEPLKVRCHYCERTMEEEEILANL | soluble
KGESYKGKVAVASVVLNRTEKKGFPDTIRGVIYQKNAFEPVANGSINQKPDKESIEAAEEALSSKNRETDAIFFYNPKTASDNWIRSRKIVEKIGRHVFAV | not soluble
MSLVSTRLNDSQCLVQFSCNRFAKILLGQTLIWVNPSNTRKWGKSKKVNPQITSMEPLELLKKYVRDEKLIKHCIATAAVMKSLARELGEDEEKWWTIGILHDIDYEQTQGDMEKHGLVGAEILLKEGVEEEIAEVVKRHNHMLFGDYEKPVEIALQAADSVSGLVIACALVKGGKITEVTPKTVKKKFKEKSFAAGCDRDRIRMIEKLGMPLEKLYEVAIRGLTEVKDELGLS | not soluble
GMKTIIRQPQLYRFLKYCNESNLDKTVLDCGAGGDLPPLSIFVEDGYKTYGIEISDLQLKKAENFSRENNFKLNISKGDIRKLPFKDESMSFVYSYGTIFHMRKNDVKEAIDEIKRVLKPGGLACINFLTTKDERYNKGEKIGEGEFLQLERGEKVIHSYVSLEEADKYFKDMKVLFKEDRVVERINDGLKIKQGYVDYIAEKFSKSIL | soluble
MGSDKIHHHHHHCSTDFLDRNPLDKPSNEAFWRTEKDAMAAATGCYNGWFSMDEVIYADCASDNAYNPFTWEGWAVQAAGTATPTDPGYSYMGYGNMVRYNNFLENIHRPEMNEDLRKRLIAEVRFLRAWDYFQKVAHYGDVPLVTSVLEIKNANLPRTEKAKVVEFILKELKEIAPQLPESYSGSDVGRITRGAALTLKARLELFEHQYDDCMATCSEVMGLGYELFLDYKGLFKIANENNSEVILDVQYVESLYGNWVLGVLPPASVGGWCSINPTQSLVDAFECEDGKTIEESEVYDPKEPYLHRDPRLAVTVLAPGNLYEGKRYDPIDVKDPNGDYYAPYGRSKTGYLVRKYVDDLSDYADMWDCGMNAIVMRYAEVLLMYAECKIELNQIDNSVYDILDDIRTRAKMPVVDRTRYTGQEKLRELLRRERRVELAMEGLRWFDICRWKIGEQVLNGKVYGCLLGTVDPVTGALSLTNERIFVENRKFDPAKHYLWPIPQTVIDATPAIVQNPHY | not soluble
MGSDKIHHHHHHMSNFGRQIEAFRAVMLTGGMTTAAETLRITQPAISRLIRDLEDDLKIALFHRRGNQITPTVEATAFLAEVERSYLGMDQLRTFAVDLRNSLTGSLRIAALPAMALGFMPYCLAKFSGTRPKLSITLDGIPSHLVLERVAGGQFELGFAAVPADRPMLNTTPIKARAVVVMPEGHPLAKNETVSADQLRNERIVMLDRGNYLRHTIERALGTRAGSPGAIETPLSAIACSFVARGLGVTIIDAFTAINFLGRGIEARLLVPELDFGFAMVTAQQRPMSQLARQFAQEIHLLAEEYQSPIFG | not soluble
MTSAHDIDLQQILTDRLTGASPDLLRELLTMFIHTLMGAEADALCGAGYGQRSEERTNSRNGYRHRDFDTRVGTLDVAIPKLRSGSYFPDWLLERRKRAEKALTTVVATCYLLGVSTRRMDRLVDTLGITGLSKSQVSVMAKDLDTQVEAFRSRPLDTGPYTFVAADALVLKVRENGRVVNVHTLVAVGVNAEGYREILGVDVTSSEDGAGWLAFFRSLVARGLGGVRLVTSDAHAGLVAAIGGTLPGASWQRCRTHYSTNLMAVTPKASWPWVKTLLHSVYDQPDADSVHAQYDRIIGALSEKLPRVADHLDAARPDLLAFTAFPKQIWKQIWSNNPQERLNKEIRRRTDVVGIFPDRTALIRLVGAVLAEQHDEWIEGRRYLGLDVLARSRNDKPTDSSTESTEEVTPALTA | not soluble
MDFDNFPIEQLSHLISFDIEWTETSVADAIKIKDIILRSPHFESASILSHCVNKIKPEVLKVFHPNYIATDRDYNEMLELRNDYFRSIVYAGGSSIDIYNVNLEDPDDFE | not soluble
MGTVLCSCLLGDNAKVRLKLSKMLEEEASGFYPDVLPEGSVSICEVEMKGCRREFYADRRSEEIEIGTPVIVEADGGFDMGVVYSTGRIALRKLQLKGLVSEVEKLPAIMRRATEEEVREFTEIRKREPEIREACLKRIERHQLDMKLVDIDLRLDQQKLSVYYTATHRIDFRGLVRDLAGEFKARIQMVQITTREEARRTNAQGSCGCALCCSTWMQKIHSNPFAEKPQMPDSMNGDNFSFNTIGLCNRPKCCLGFSKTNGKNGNCHHGKVRQNGWPSVGTTFTVRDGNAVVEGVDQQKKSIWIRYVSTGQKRRISLDQYNNMAGKRQGGQALEHHHHHH | not soluble
MGSDKIHHHHHHMKCLLCGQTMKTVLTFSSLLLLRNDDSCLCSDCDSTFERIGEENCPNCMKTELSTKCQDCQLWCKEGVEVSHRAIFTYNQAMKDFFSRYKFDGDFLLRKVFASFLSEELKKYKEYQFVVIPLSPDRYANRGFNQVEGLVEAAGFEYLDLLEKREERASSSKNRSERLGTELPFFIKSGVTIPKKILLIDDIYTTGATINRVKKLLEEAGAKDVKTFSLVR | not soluble
MKYMIGVDGGGTKTEAIAFDKDGNELVRATSGFGNILIDFEEALVHIMEAINQCQKSLINGHCVCVCLGLAGISGANTNELTLRLKKKYGTKIEIFNDAMIAHAAALKGKDGILTIGGTGAICIGKKGEVYQYSGGWGHILGDEGSGYWIALQALKKMAIQFDQGISLCPLSLNIQRQFQLLTPSHIKSLVYTSSKDKIAAIAPLVIQEARDGNDDAHEIMMQAGKELARITVNVYNKLNFKHSTPIAASGSILRLVPEIFAVFKKCCEESMKEITFVSQAEMAVKGTYYLMRDIYFLEHHHHHH | soluble
MGLSGFHSFLCCRSRDYHLVINTLIHTVMTMDITKSVAFTGHRSERILQVRMLYLYLDIVSQVKRLYSLGYRYFLSGMAEGFDLLAAQAVTALKAEYTDIRLIAVVPFSRQSNRYRPENKSLYDRIMKTADETVILREDYRKGCFHHRNDYLIDNSEIVLAYWDKQPYGGTYYTVGKARMVNRIIINLYK | not soluble
MGKLYVVPTPVGNLEDMTFRAIKVLKEADLILAEDTRTSGILLKHFEIKNVMQSHHKFNEHKTVESVVNRIKAGETIALISDAGTPGISDPGFLVVRECVRNGIEVQCLPGA | not soluble
MAHHHHHHMEDGVIISGDYIQMEKDKVKRINEHNFEQVHDVESDNLYRSKCSGILLKTPYYPYKYDIMNTSYKYMPKVGDLVIGIVKSKKLDYYQMDINCNCECIIHKIESFKYATKNSFPNLANGTLLYMIVEKINLDNNSVVASCINSSDVKSWINYENYLGELVDGYMFPVSISYAKSLIGDKCYLLDLIGADVSYEVAVGHNGR | not soluble
SLSGRIVYNFNPGWRFHRGDIKGAEAVRFDDTSWQVVSVPHTVELMPAEASGCRNYQGVAWYRKHFVIPQDMKGKEVSLHFEGAMGKQVIYLNGKRVQEHLGGYLPFTVQLTEQGVQPGDSCLLAVMTDNSDDKNFPPGKRQYTLDFAYHGGIYRDVWMIGKSSVAITDALEADKVAGGGVFVHFDNISGKKAEVYVDTEVHNSGKQTRTVAVETVLADAGDVPVKRVSQQVKLQAGESKTVRQRFAVRNPKLWSPDSPYLYRIQSRVKAGHEVLDGGVTRVGIRKAEFKGKDGFWLNGKPFGQLVGANRHQDFAYVGNALPNSQQWRDAKRLRDAGCTIIRVAHYPQDPAFMDACDEMGLFVIVATPGWQYWNKNPEFAKLVHRNTREMIRRDRNHPSVLMWEPILNETPYPRDFALEALRITREEFPYPGRPVAAADVHSKGVAENYDVVYGWPGDDEKADRPEQCIFTREFGENVDDWYAHNNNNRASRSWGERPLLVQALSLSKSYDEMYRTTGQFVGGAQWHPFDHQRGYHPDPYFGGIYDAFRQPKYAYYAFRSQSAATLKHPVAECGPMVFIAHEMSPFSDADVVVFSNCDSVRLSVYDGTESRTLPVVHAQGHMPNAPVIFKDVWDFWEAREYSYKQKNWQKVNMVAEGIIDGKVVCTYKRMPSRRSTKLRMYVDTEGKQLVADGSDFIVVVAEVTDDSGNVRRLAKENIVFTVEGEGRIIGDASINANPRTVEFGSAPVLIRSTRKPGKIKVKAHVQFEGTNAPVATEIELESIPSELPFCYTEEG | not soluble
MNHQARMRWRCRRGMLELDIVLQRFIDNHYEQLDEHQLELFEMLLSLSDHDLWNIIIGNTKEPNNQFQPVLKLLQENLEHHHHHH | soluble
